Results on 2 substances are retold here after paper PMC9718841.

In test [1] the target is recombinant human CALM2 protein (human) (UniProt P0DP24). Description: MST; labelled CALM2 at 500 nM, peptide in 16-point serial dilution, 25 °C; in the absence (1 mM EDTA, Apo-CALM2) and presence of Ca2+.
Test [2] has the same target. Nature of the test: MST; CaCl2.

Sequence of peptide TLIQ2 (O00206 whole entry, looked up, tested part not stated): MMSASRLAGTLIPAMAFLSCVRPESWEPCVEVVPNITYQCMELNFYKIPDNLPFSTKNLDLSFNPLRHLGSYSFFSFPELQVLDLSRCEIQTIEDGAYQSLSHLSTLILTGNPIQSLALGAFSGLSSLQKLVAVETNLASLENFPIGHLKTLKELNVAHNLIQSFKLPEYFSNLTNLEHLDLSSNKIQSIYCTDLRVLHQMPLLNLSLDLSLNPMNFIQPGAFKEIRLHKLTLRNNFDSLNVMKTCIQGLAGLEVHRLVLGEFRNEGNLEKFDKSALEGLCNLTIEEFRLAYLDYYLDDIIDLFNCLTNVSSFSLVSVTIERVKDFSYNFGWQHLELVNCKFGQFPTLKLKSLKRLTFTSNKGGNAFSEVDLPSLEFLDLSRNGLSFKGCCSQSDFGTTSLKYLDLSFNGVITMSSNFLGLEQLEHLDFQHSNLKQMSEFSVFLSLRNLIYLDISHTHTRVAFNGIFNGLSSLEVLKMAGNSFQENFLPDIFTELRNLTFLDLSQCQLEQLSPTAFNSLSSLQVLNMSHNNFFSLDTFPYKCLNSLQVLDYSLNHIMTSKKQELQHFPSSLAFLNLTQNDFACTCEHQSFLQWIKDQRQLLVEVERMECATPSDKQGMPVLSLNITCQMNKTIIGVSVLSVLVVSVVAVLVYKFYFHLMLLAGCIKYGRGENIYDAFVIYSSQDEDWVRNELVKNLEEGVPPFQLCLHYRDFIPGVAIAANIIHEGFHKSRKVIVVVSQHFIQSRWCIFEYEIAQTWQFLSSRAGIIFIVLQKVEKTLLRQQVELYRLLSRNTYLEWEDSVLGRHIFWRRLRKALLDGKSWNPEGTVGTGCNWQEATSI

In general, Kd refers to a measure of binding affinity in units of concentration. For the substance peptide TLIQ2, in test [1], the Kd is 6.69 µM. On to peptide TLIQ2 (from UniProt O00206), for which, in test [2], the Kd was 9.03 µM.
